Laboratory results reported in paper PMC7241075.
Values joined by “and” are separate entries in the source; they are usually repeats but may differ in a detail not shown here. Identical values can stand only once.

Key:
[1] = target: Scolopendra subspinipes subspinipes haemocyanin (Scolopendra subspinipes subspinipes); experiment: SEC; plasma (supernatant of haemolymph, 3300g, 30 min, 4°C) on Superose 6 3.2/300, isocratic Tris buffer with 5 mM CaCl2 and 5 mM MgCl2, pH 8.2 or 8.0 (methods), 0.1 ml min^-1; oligomer told from the retention volume
[2] = target: Scolopendra subspinipes subspinipes haemocyanin (Scolopendra subspinipes subspinipes); experiment: negative-stain transmission electron microscopy; first SEC peak in TRIS stabilizing buffer, stained with 2% uranyl acetate, Jeol 1400Plus
[3] = target: Scolopendra subspinipes subspinipes haemocyanin (Scolopendra subspinipes subspinipes); experiment: as above; remark: listed apart in the source
[4] = target: Scolopendra subspinipes subspinipes haemocyanin (Scolopendra subspinipes subspinipes); experiment: negative-stain transmission electron microscopy; Hc pellet from ultracentrifugation, 26-30 µg ml^-1, in 50 mM MES (pH 6.2, 6.6) or 50 mM TRIS-HCl (pH 7.2-8.5) with 5 mM CaCl2 and 5 mM MgCl2; particles counted as 3 × 6-mer or 1 × 6-mer
[5] = target: Scolopendra viridicornis haemocyanin (Scolopendra viridicornis); experiment: SEC; plasma (supernatant of haemolymph, 3300g, 30 min, 4°C) on Superose 6 3.2/300, isocratic Tris buffer with 5 mM CaCl2 and 5 mM MgCl2, pH 8.2 or 8.0 (methods), 0.1 ml min^-1; oligomer told from the retention volume
[6] = target: Scolopendra viridicornis haemocyanin (Scolopendra viridicornis); experiment: negative-stain transmission electron microscopy; first SEC peak in TRIS stabilizing buffer, stained with 2% uranyl acetate, Jeol 1400Plus

| stoichiometry N [2] | stoichiometry N [3] | stoichiometry N [4] | stoichiometry N [6] | Substance | stoichiometry N [1] | stoichiometry N [5] |
| --- | --- | --- | --- | --- | --- | --- |
| 6 | 18 | 18 and 6 | – | Scolopendra subspinipes subspinipes haemocyanin (complex) | 18 | – |
| – | – | – | 36 and 18 | Scolopendra viridicornis haemocyanin (complex) | – | 36 |
